Experimental data as given in patent US20260109774A1 (JUNO THERAPEUTICS, published 2026).

Legend:
[1] = target: T1, recombinant human BCMA-hFc (human, UniProt Q02223 1-54, biotinylated in the kinetic exclusion assay of paragraph 546); test: Biacore-based assay (SPR)
T1 construct: also called rhBCMA hFc; recombinant human BCMA fusion protein
T1 sequence: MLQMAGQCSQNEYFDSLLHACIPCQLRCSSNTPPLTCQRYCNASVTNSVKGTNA

[2] = target: T2, human B-cell maturation antigen (BCMA) on cells (human, UniProt Q02223 1-184); test: membrane proteome array on transfected HEK293 cells (Retrogenix)
T2 construct: Recombinant on HEK293 or K562 cells, or endogenous on cell lines (H929, RPMI 8226, OPM2, MM1S, Daudi); also called hBCMA; huBCMA
T2 chain: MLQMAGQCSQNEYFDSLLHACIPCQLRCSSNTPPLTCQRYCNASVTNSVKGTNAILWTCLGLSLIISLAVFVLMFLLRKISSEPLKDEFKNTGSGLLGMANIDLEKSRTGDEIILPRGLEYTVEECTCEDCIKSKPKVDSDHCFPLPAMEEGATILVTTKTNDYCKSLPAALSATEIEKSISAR
Description: A membrane proteome array (MPA) assay was used to assess binding specificity of the BCMA-55-derived binding domain, using an scFv-Fc fusion protein. […] An initial screening involved an scFv binding assay for BCMA-55-scFv against the full protein panel. A follow-up confirmation screen was then performed retesting the interaction of BCMA-55-Fc with a subset of potential hits identified in the initial screen.

Kd [1]: ~10 nM
binding result [2]: binds
B1: BCMA-55 scFv-Fc fusion protein (Fc fusion, not shown: a dimerising Fc or GST)
chain: QSALTQPASVSASPGQSIAISCTGTSSDVGWYQQHPGKAPKLMIYEDSKRPSGVSNRFSGSKSGNTASLTISGLQAEDEADYYCSSNTRSSTLVFGGGTKLTVLGSRGGGGSGGGGSGGGGSLEMAEVQLVQSGAEMKKPGASLKLSCKASGYTFIDYYVYWMRQAPGQGLESMGWINPNSGGTNYAQKFQGRVTMTRDTSISTAYMELSRLRSDDTAMYYCARSQRDGYMDYWGQGTLVTVSS
notes: also called BCMA-55-Fc
